# Laboratory results as given in PMC2654063, “Three New Structures of Left-Handed RadA Helical Filaments: Structural Flexibility of N-Terminal Domain Is Critical for Recombinase Activity” (PLoS ONE, 2009).
# B1: SsoRadA (Sulfolobus solfataricus RadA) (Saccharolobus solfataricus P2) (protein)
# chain: MSNEVEQKKNIKTINDLPGISQTVINKLIEAGYSSLETLAVASPQDLSVAAGIPLSTAQKIIKEARDALDIRFKTALEVKKERMNVKKISTGSQALDGLLAGGIETRTMTEFFGEFGSGKTQLCHQLSVNVQLPPEKGGLSGKAVYIDTEGTFRWERIENMAKALGLDIDNVMNNIYYIRAINTDHQIAIVDDLQELVSKDPSIKLIVVDSVTSHFRAEYPGRENLAVRQQKLNKHLHQLTRLAEVYDIAVIITNQVMARPDMFYGDPTVAVGGHTLYHVPGIRIQLKKSRGNRRIARVVDAPHLPEGEVVFALTEEGIRDAEE
# notes: purified recombinant protein; homo-oligomeric nucleoprotein filament on ssDNA; F73, R72, R83 given
# B2: SsoRadA (Sulfolobus solfataricus RadA) (Saccharolobus solfataricus P2; R72G) (protein)
# chain: MSNEVEQKKNIKTINDLPGISQTVINKLIEAGYSSLETLAVASPQDLSVAAGIPLSTAQKIIKEARDALDIGFKTALEVKKERMNVKKISTGSQALDGLLAGGIETRTMTEFFGEFGSGKTQLCHQLSVNVQLPPEKGGLSGKAVYIDTEGTFRWERIENMAKALGLDIDNVMNNIYYIRAINTDHQIAIVDDLQELVSKDPSIKLIVVDSVTSHFRAEYPGRENLAVRQQKLNKHLHQLTRLAEVYDIAVIITNQVMARPDMFYGDPTVAVGGHTLYHVPGIRIQLKKSRGNRRIARVVDAPHLPEGEVVFALTEEGIRDAEE
# notes: as for B1
# B3: SsoRadA (Sulfolobus solfataricus RadA) (Saccharolobus solfataricus P2; R72A) (protein)
# chain: MSNEVEQKKNIKTINDLPGISQTVINKLIEAGYSSLETLAVASPQDLSVAAGIPLSTAQKIIKEARDALDIAFKTALEVKKERMNVKKISTGSQALDGLLAGGIETRTMTEFFGEFGSGKTQLCHQLSVNVQLPPEKGGLSGKAVYIDTEGTFRWERIENMAKALGLDIDNVMNNIYYIRAINTDHQIAIVDDLQELVSKDPSIKLIVVDSVTSHFRAEYPGRENLAVRQQKLNKHLHQLTRLAEVYDIAVIITNQVMARPDMFYGDPTVAVGGHTLYHVPGIRIQLKKSRGNRRIARVVDAPHLPEGEVVFALTEEGIRDAEE
# notes: as for B1
# B4: SsoRadA (Sulfolobus solfataricus RadA) (Saccharolobus solfataricus P2; R72P) (protein)
# chain: MSNEVEQKKNIKTINDLPGISQTVINKLIEAGYSSLETLAVASPQDLSVAAGIPLSTAQKIIKEARDALDIPFKTALEVKKERMNVKKISTGSQALDGLLAGGIETRTMTEFFGEFGSGKTQLCHQLSVNVQLPPEKGGLSGKAVYIDTEGTFRWERIENMAKALGLDIDNVMNNIYYIRAINTDHQIAIVDDLQELVSKDPSIKLIVVDSVTSHFRAEYPGRENLAVRQQKLNKHLHQLTRLAEVYDIAVIITNQVMARPDMFYGDPTVAVGGHTLYHVPGIRIQLKKSRGNRRIARVVDAPHLPEGEVVFALTEEGIRDAEE
# notes: as for B1
# Substrate: Nc1ncnc2c1ncn2[C@@H]1O[C@H](COP(=O)(O)OP(=O)(O)OP(=O)(O)O)[C@@H](O)[C@H]1O
# Experiment: purified protein
# Format: biochemical, Saccharolobus solfataricus
# Conditions: with ssDNA; labelled compound
Protein,Km [µM],kcat [s⁻¹]
B1,398 ± 52,0.000617 ± 5e-05
B2,176 ± 23,0.000267 ± 1.7e-05
B3,37 ± 11,0.000183 ± 3.3e-05
B4,143 ± 10,0.000267 ± 1.7e-05
